US20190077863A1 (AERPIO PHARMACEUTICALS, published 2019)
Positions count from the first letter of the chain named. In names and notes the source's numbering stands.

B1: humanized R15E6 variant HC2LC1 (antibody, human IgG4 S228P, kappa, V domains shown)
VH: EVQLVESGGGLVQPGGSLRLSCAASGFTFNANAMNWVRQAPGKGLEWVGRIRTKSNNYATYYAGSVKDRFTISRDDSKNSLYLQMNSLKTEDTAVYYCVRDYYGSSAWITYWGQGTLVTVSS
VL: DVVMTQSPSFLSASVGDRVTITCKASQHVGTAVAWYQQRPGKAPKLLIYWASTRHTGVPSRFSGSGSGTEFTLTISSLQPEDFATYFCQQYSSYPFTFGGGTKLEIKR
notes: Human IgG4 (S228P) / kappa, expressed in CHO cells; Signal peptides left out by range; also called VH2-VL1
B2: humanized R15E6 variant HC2LC4 (antibody, human IgG4 S228P, kappa, V domains shown)
VH: B1 VH
VL: DIVMTQSPDSLAVSLGERATINCKASQHVGTAVAWYQQKPEQPPKLLIYWASTRHTGVPDRFSGSGSGTDFTLTISSLQAEDVAVYYCQQYSSYPFTFGGGTKVEIKR
notes: Human IgG4 (S228P) / kappa, expressed in CHO cells; Signal peptides left out by range; also called VH2-VL4
B3: humanized R15E6 variant HC1LC2 (antibody, human IgG4 S228P, kappa, V domains shown)
VH: B1 VH with R19K, P41S, S80T, L81A, V95A
VL: B2 VL with E41G, G100Q, V104L
notes: Human IgG4 (S228P) / kappa, expressed in CHO cells; Signal peptides left out by range; also called VH1-VL2
B4: humanized R15E6 variant HC1LC4 (antibody, human IgG4 S228P, kappa, V domains shown)
VH: B1 VH with R19K, P41S, S80T, L81A, V95A
VL: B2 VL
notes: Human IgG4 (S228P) / kappa, expressed in CHO cells; Signal peptides left out by range; also called VH1-VL4
B5: mouse/human chimeric antibody HC0LC0 (antibody, human IgG4 S228P, kappa, V domains shown)
VH: EVQLVETGGGLVQPKGSMKLSCAASGFTFNANAMNWIRQAPGKGLEWVARIRTKSNNYATYYAGSVKDRFTISRDDAQNMLYLQMNDLKTEDTAMYYCVRDYYGSSAWITYWGQGTLVTVSA
VL: DIVMTQSHKFMSTSVGDRVSITCKASQHVGTAVAWYQQKPDQSPKQLIYWASTRHTGVPDRFTGSGSGTDFTLTISNVQSEDLADYFCQQYSSYPFTFGSGTKLEIKR
notes: Murine variable domains of R15E6 on human IgG4 (S228P) and kappa constant domains, expressed in CHO cells; also called VH0-VL0
B6: humanized R15E6 variant HC2LC2 (antibody, human IgG4 S228P, kappa, V domains shown)
VH: B1 VH
VL: B2 VL with E41G, G100Q, V104L
notes: Human IgG4 (S228P) / kappa, expressed in CHO cells; Signal peptides left out by range; also called VH2-VL2
B7: humanized R15E6 variant HC3LC4 (antibody, human IgG4 S228P, kappa, V domains shown)
VH: B1 VH with G16R, A23T, S80I, L81A
VL: B2 VL
notes: Human IgG4 (S228P) / kappa, expressed in CHO cells; Signal peptides left out by range; also called VH3-VL4
B8: humanized R15E6 variant HC2LC3 (antibody, human IgG4 S228P, kappa, V domains shown)
VH: B1 VH
VL: B1 VL with V2I, V3Q, S9F, F10S, R39K, E70D
notes: Human IgG4 (S228P) / kappa, expressed in CHO cells; Signal peptides left out by range; also called VH2-VL3

The binders below were run against T1, Human VE-PTP (HPTP-β) containing first eight FN3 repeats with C-terminal His6 tag (Human ½ VE-PTP ECD) (human, UniProt P23467 23-820) (assay: SPR (Biacore 3000), antibody captured on anti-human IgG, antigen as analyte 50-0 nM).
T1 construct: Produced in HEK293 cells and purified by the His tag; it was not cut off; also called Human Beta ½ ECD
T1 sequence: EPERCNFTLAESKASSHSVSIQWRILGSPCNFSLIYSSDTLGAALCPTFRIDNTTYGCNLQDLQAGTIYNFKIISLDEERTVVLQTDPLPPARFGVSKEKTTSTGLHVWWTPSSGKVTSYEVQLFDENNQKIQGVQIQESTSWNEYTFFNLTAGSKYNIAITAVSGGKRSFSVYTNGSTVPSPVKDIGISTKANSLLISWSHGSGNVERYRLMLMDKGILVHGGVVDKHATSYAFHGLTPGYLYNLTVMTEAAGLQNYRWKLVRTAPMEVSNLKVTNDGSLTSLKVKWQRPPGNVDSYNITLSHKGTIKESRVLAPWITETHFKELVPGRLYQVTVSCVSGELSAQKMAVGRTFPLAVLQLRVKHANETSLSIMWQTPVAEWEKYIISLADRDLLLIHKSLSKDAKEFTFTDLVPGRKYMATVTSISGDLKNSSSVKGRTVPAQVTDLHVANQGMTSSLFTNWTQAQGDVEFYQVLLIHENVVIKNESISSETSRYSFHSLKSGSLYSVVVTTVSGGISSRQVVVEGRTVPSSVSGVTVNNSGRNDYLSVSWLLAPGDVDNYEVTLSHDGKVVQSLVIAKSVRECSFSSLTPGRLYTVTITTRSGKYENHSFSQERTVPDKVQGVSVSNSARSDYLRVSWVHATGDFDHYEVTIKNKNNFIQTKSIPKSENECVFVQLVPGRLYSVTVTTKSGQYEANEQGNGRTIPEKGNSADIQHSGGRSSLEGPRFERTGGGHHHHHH
Procedure: (§1) Samples of each variant were further assessed by Biacore analysis to determine the binding affinity. Antibody binding experiments were performed on Biacore 3000™ at 25° C. Assay buffer: 10 mM HEPES buffer (pH 7.4), 150 mM NaCl, 3 mM EDTA, 0.05% P20 (polyoxyethylenesorbitan). […] Conjugation buffer: 10 mM sodium acetate buffer (pH 5). The flow rate used for capturing the ligand was 5 μL/min. The flow rate for the kinetic analysis was 50 μL/min. Flow cell 1 and […] of the CM5 chip were coated with maximum amounts of goat anti-human IgG. Approximately 150 RU of the test antibody was captured on flow cell 2, 3, and 4 as indicated. The antigen was flowed over the chip. Binding of the antigen to the antibodies was monitored in real time. The KD was determined from the observed kₒₙ and koff values.
In the case of B1, the Ka is reported as 1.5e+10 M⁻¹, the Kd is reported as 0.0668 nM and the koff is reported as 7.23e-05 s⁻¹. It also gave a kon of 1.08e+06 M⁻¹ s⁻¹. Binder B2 has a Ka of 2.3e+09 M⁻¹, a Kd of 0.436 nM and a koff of 0.000429 s⁻¹. The kon was 986000 M⁻¹ s⁻¹. Work on B3 yielded a Ka of 4.33e+08 M⁻¹, a Kd of 2.31 nM and a koff of 0.000947 s⁻¹. It also gave a kon of 410000 M⁻¹ s⁻¹. Work on B4 yielded a Ka of 4.44e+08 M⁻¹, a Kd of 2.25 nM and a koff of 0.00134 s⁻¹. For the same binder, the kon was 596000 M⁻¹ s⁻¹. Binder B5 has a Ka of 3.18e+08 M⁻¹, a Kd of 3.14 nM and a koff of 0.000656 s⁻¹. It also gave a kon of 209000 M⁻¹ s⁻¹.

The binders below were run against T1, Human VE-PTP (HPTP-β) containing first … (assay: SPR (Biacore 3000), antibody captured on anti-human IgG, antigen as analyte 25-0 nM).
Procedure: as §1
With B6 the Ka was 1.98e+07 M⁻¹, the Kd was 50.6 nM and the koff was 0.00215 s⁻¹. The kon was 42500 M⁻¹ s⁻¹. B7 showed a Ka of 1.23e+08 M⁻¹, a Kd of 8.14 nM and a koff of 0.00109 s⁻¹. It also gave a kon of 134000 M⁻¹ s⁻¹. B8 was tested, and the Ka was 6.75e+08 M⁻¹, the Kd was 1.48 nM and the koff was 0.00123 s⁻¹. For the same binder, the kon was 890000 M⁻¹ s⁻¹.

What follows are binders tested against T2, Human HPTP-η with C-terminal His10 tag (Human HPTP-η ECD) (human, UniProt Q12913 36-975) (assay: ELISA, coated antigen).
T2 construct: Produced in HEK293 cells; it was not cut off; also called Human PTPη; human PTP-η
T2 sequence: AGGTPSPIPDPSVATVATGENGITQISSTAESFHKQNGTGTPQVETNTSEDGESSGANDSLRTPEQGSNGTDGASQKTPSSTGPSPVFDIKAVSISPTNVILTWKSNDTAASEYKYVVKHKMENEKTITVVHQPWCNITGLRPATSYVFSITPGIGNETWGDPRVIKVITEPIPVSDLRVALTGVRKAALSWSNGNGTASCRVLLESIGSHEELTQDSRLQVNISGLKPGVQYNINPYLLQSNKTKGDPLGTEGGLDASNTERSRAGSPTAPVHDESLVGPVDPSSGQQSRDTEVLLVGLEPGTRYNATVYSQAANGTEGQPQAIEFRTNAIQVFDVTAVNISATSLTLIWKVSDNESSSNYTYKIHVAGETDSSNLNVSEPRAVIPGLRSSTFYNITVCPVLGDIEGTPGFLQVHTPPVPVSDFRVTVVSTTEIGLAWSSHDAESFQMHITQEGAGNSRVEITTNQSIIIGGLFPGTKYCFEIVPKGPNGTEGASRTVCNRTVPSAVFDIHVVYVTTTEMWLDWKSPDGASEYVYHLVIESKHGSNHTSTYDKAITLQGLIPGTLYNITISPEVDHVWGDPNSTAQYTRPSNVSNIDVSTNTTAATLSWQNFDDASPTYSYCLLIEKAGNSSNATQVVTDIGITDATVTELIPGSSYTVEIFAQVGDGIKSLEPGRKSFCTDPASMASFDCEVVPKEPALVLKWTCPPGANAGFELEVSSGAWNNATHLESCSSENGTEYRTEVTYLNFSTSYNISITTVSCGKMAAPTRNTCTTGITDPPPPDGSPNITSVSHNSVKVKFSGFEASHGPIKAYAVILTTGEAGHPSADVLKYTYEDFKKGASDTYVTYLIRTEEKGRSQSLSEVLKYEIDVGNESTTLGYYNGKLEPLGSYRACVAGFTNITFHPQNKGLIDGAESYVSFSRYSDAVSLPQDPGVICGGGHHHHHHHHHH
Procedure: HPTP-β, cyno PTP-β, and HPTP-η proteins were coated onto ELISA plates in coating buffer (pH 9.4). Each protein was prepared as a 1 μg/mL protein stock in 50 mM carbonate-bicarbonate. The coated proteins were aliquoted at a volume of 100 μL/well into sterile, clear, polystyrene, flat bottom 96-well plates. The plates were incubated overnight at 4° C. After overnight incubation, the plates were washed 3× with 200 μL/well of 1×PBS-T (PBS with 0.05% Tween 20). The immunizing protein was human VE-PTP (HPTP-β). The plates were then blocked with 200 μL/well of 5% blotting grade blocker non-fat dry milk in PBS-T and incubated for 1 hr at room temperature.
Primary antibody samples were prepared for the humanized variants and the negative control, anti-hCD20-hIgG4S228P, using 1 μg/well in 5% blotting grade blocker non-fat dry milk in PBS. Samples were tested in triplicates. The Fab antibody fragments were treated as the IgG antibodies. The plates were then washed 3× with PBS-T and 100 μL of primary antibody preparation was added in each well. The plates were then incubated for 1 hr at room temperature.
Then, […] Ultra TMB-ELISA was added in each well, and the plate was allowed to develop for 5 min at room temperature. After 5 min, 50 μL of 2 M sulfuric acid was added to each well to stop the reaction. The plates were then analyzed on a plate reader at an absorbance wavelength of 450 nm.
B1: no binding (tested: <=0.2; 1 µg/well). B6: no binding (tested: <=0.2; 1 µg/well). B2: no binding (tested: <=0.2; 1 µg/well). B7: no binding (tested: <=0.2; 1 µg/well). B8: no binding (tested: <=0.2; 1 µg/well). B3: no binding (tested: <=0.2; 1 µg/well). B4: no binding (tested: <=0.2; 1 µg/well). B5: no binding (tested: <=0.2; 1 µg/well).
